Biological target: monomeric full length gp120 of BaL isolate (HIV-1 isolate BaL)
Assay: SPR, mAb immobilised, 1:1 Langmuir

Substance	Kd	koff	kon
mAb 2.2c (antibody)	12 nM	0.000875 s⁻¹	73000 M⁻¹ s⁻¹
mAb A32 (antibody)	3.2 nM	0.000437 s⁻¹	139000 M⁻¹ s⁻¹
mAb JR4 (antibody)	2.34 nM	0.000611 s⁻¹	262000 M⁻¹ s⁻¹
mAb N5-i5 (antibody)	5.03 nM	0.00036 s⁻¹	72000 M⁻¹ s⁻¹
mAb N60-i3 (antibody)	2.03 nM	0.000512 s⁻¹	253000 M⁻¹ s⁻¹

Biological target: single-chain gp120BaL-sCD4 complex (FLSC) (HIV-1 isolate BaL) (UniProt P01730)
Assay: SPR, mAb immobilised, 1:1 Langmuir

Substance	Kd	fold change of KD, FLSC relative to gp120BaL	fold change of ka, FLSC relative to gp120BaL	fold change of kd, FLSC relative to gp120BaL	koff	kon
mAb 2.2c (antibody)	0.5 nM	24 fold	15.7 fold	1.6 fold	0.000556 s⁻¹	1.15e+06 M⁻¹ s⁻¹
mAb A32 (antibody)	0.23 nM	13.9 fold	3.2 fold	4.3 fold	0.000102 s⁻¹	443000 M⁻¹ s⁻¹
mAb JR4 (antibody)	0.18 nM	13 fold	2.5 fold	5.3 fold	0.000116 s⁻¹	643000 M⁻¹ s⁻¹
mAb N5-i5 (antibody)	0.29 nM	17.3 fold	11.5 fold	1.5 fold	0.000238 s⁻¹	825000 M⁻¹ s⁻¹
mAb N60-i3 (antibody)	0.25 nM	8 fold	4.9 fold	1.6 fold	0.000314 s⁻¹	1.24e+06 M⁻¹ s⁻¹

Biological target: single-chain gp120BaL-sCD4 complex (FLSC) (HIV-1 isolate BaL) (UniProt P01730)
Assay: isothermal titration calorimetry, A32 IgG

Substance	Kd	ΔH
mAb A32 (antibody)	11.5 nM	-13.2 kJ/mol

Reference: US20170283486A1
